B1: A1R, untagged (plasmid ARJ194: pCEP4 A1R) (receptor)
chain: MPPSISAFQAAYIGIEVLIALVSVPGNVLVIWAVKVNQALRDATFCFIVSLAVADVAVGALVIPLAILINIGPQTYFHTCLMVACPVLILTQSSILALLAIAVDRYLRVKIPLRYKMVVTPRRAAVAIAGCWILSFVVGLTPMFGWNNLSAVERAWAANGSMGEPVIKCEFEKVISMEYMVYFNFFVWVLPPLLLMVLIYLEVFYLIRKQLNKKVSASSGDPQKYYGKELKIAKSLALILFLFALSWLPLHILNCITLFCPSCHKPSILTYIAIFLTHGNSAMNPIVYAFRIQKFRVTFLKIWNDHFRCQPAPPIDEDLPEERPDD

What follows are molecules tested against Gαi (endogenous in HEK-293 cells) (human (endogenous in HEK-293)) (UniProt P63096).
Sequence of UniProt P63096 (P63096 whole entry): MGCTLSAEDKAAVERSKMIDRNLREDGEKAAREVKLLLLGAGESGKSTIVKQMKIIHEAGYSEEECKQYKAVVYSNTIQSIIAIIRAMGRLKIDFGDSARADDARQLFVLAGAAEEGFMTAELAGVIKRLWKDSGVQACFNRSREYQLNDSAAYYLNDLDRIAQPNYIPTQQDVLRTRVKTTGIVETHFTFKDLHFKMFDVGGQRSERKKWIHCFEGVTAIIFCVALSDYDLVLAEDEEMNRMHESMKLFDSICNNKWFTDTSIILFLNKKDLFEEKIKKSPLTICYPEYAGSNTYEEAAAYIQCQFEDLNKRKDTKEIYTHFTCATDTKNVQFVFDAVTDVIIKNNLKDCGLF

First: A1/A2AR chimera, untagged (plasmid ARJ195: pCEP4 A1/A2AR) (from UniProt P30542 1-290; P29274 291-412) (receptor)
Second: A1/A2AΔ316R truncated chimera, untagged (plasmid ARJ196: pCEP4 A1/A2AΔ316R) (from UniProt P30542 1-290; P29274 291-316) (receptor)
The reduction in cAMP signaling in transiently transfected HEK-293 cells, 1 µM CPA with 10 μM forskolin, normalized to forskolin treated cells of the first is higher: 72% for the first, 67% for the second.

With B1 the reduction in cAMP signaling in transiently transfected HEK-293 cells, 1 µM CPA with 10 μM forskolin, normalized to forskolin treated cells was 62%.
